From publication PMC6994090

Target: alpha-thrombin (human, UniProt P00734;P00734 328-363;364-622)
Assay: SPR

B1: Tbn#3 (structured_RNA)
RNA: CCUUUGGUUCGGAUAAUUAUUAAGUAUUGUCUUCAUUCA
modifications: RNA (U for T); 2'-F C and U, 2'-OH A and G
B1 gave a Kd of 1.4 nM.

B2: Tbn#6 (structured_RNA)
RNA: UGAGGUGUUUGGGGUACUACUGGUAAAGGAUUUUCAUCUA
modifications: RNA (U for T); 2'-F C and U, 2'-OH A and G
Binder B2 has a Kd of 1.7 nM.
